{"source": "patent US20090081183A1", "about": "“HIV Transcription Repressor Complex and Compositions and Methods Based Thereon” (priority 1997, published 2009)", "molecules": {"B1": {"name": "YZnFs: GST fused to all four YY1 zinc fingers without the YY1 amino-terminal region (protein)", "chain": "TIACPHKGCTKMFRDNSAMRKHLHTHGPRVHVCAECGKAFVESSKLKRHQLVHTGEKPFQCTFEGCGKRFSLDFNLRTHVRIHTGDRPYVCPFDGCNKKFAQSTNLKSHILTHAKAKNNQ", "modifications": "left off: a dimerising Fc or GST", "notes": "GST fused to all four YY1 zinc fingers without the YY1 amino-terminal region"}, "B2": {"name": "LSF: lymphoid transcription factor (LBF-1, CP-2) that represses LTR-driven transcription (SEQ ID NO: 5) (protein, listed as Homo sapiens)", "chain": "MAWALKLPLADEVIESGLVQDFDASLSGIGQELGAGAYSMSDVLALPIFKQEESSLPPDNENKILPFQYVLCAATSPAVKLHDETLTYLNQGQSYEIRMLDNRKLGELPEINGKLVKSIFRVVFHDRRLQYTEHQQLEGWRWNRPGDRILDIDIPMSVGIIDPRANPTQLNTVEFLWDPAKRTSVFIQVHCISTEFTMRKHGGEKGVPFRVQIDTFKENENGEYTEHLHSASCQIKVFKPKGADRKQKTDREKMEKRTPHEKEKYQPSYETTILTECSPWPEITYVNNSPSPGFNSSHSSFSLGEGNGSPNHQPEPPPPVTDNLLPTTTPQEAQQWLHRNRFSTFTRLFTNFSGADLLKLTRDDVIQICGPADGIRLFNALKGRMVRPRLTIYVCQESLQLREQQQQQQQQQQKHEDGDSNGTFFVYHAIYLEELTAVELTEKIAQLFSISPCQISQIYKQGPTGIHVLISDEMIQNFQEEACFILDTMKQETNDSYHIILK"}}, "key": {"LSF": {"molecular_target": "T1, LSF (Homo sapiens, UniProt Q12800, A491Q)", "T1 construct": "host or cells: in vitro transcription/translation in rabbit reticulocyte lysate (T7 RNA polymerase)", "T1 sequence (Q12800 1-502 A491Q)": "B2 chain", "assay": "In vitro protein interaction mapping: GST-YY1/GFI-1 chimeras retaining 35S-labeled LSF", "type": "binding", "conditions": "glutathione-agarose capture, 35S-methionine labeled LSF", "source_text": "In vitro protein interaction mapping: Glutathione-S-transferase (GST)-YY1/GFI-1 chimeras (17) and G3ST-LSF deletion (54, 55) constructs were expressed and harvested in E. coli as previously described. Proteins were visualized by Coomassie brilliant blue staining and protein content was normalized by densitometric analysis. LSF was transcribed and translated in vitro by T7 RNA polymerase in rabbit reticulocyte (Promega, Madison, Wis.) in the presence of ^35S-methionine as per manufacturer's instruction (54). Following capture of GST-YY1/GFI-1 chimera proteins on glutathione-agarose beads, equal volumes of beads were incubated with ^35S-methionine labeled LSF in incubation buffer (17) for 1 hour at 4° C. The beads were washed in incubation buffer/100 mM KCl and resuspended in 20 μl 2×SDS loading buffer. Retained LSF was separated in a 10% SDS gel, dried, and visualized by autoradiography. Similarly, YY1 was transcribed and translated in vitro, incubated with captured GST-LSF constructs, and retained YY1 was by autoradiography following electrophoresis.\nYY1 DNA-binding activity and many YY1-protein interactions map to the carboxyl-terminal zinc fingers of the molecule. Therefore, YY1 interaction domains were mapped using chimeric YY1 recombinants (FIG. 2c). […]"}, "HIV-1 LTR": {"tested_on": "HIV-1 LTR", "assay": "Tat-activated integrated LTR-CAT reporter assay in HeLa-CD4-LTR cells", "type": "cell-based", "protocol": "Cell lines transfections and assays. Transfections of HeLa cells were performed as previously described (49). HeLa-CD4-LTR (9) cells were grown in DMEM supplemented with 10% FCS and transfected with 20 μg plasmid DNA (prepared using EndoFree plasmid kit, Qiagen, Valencia, Calif.) by calcium phosphate coprecipitation as per manufacturer's instructions (ProFection system, Promega, Madison, Wis.). After 30 minutes at room temperature, the solution was added to the cells (2.5-4×10^5 cells/plate). Twelve hours after transfection, the cells were washed with PBS and fed fresh medium. Forty-eight hours later the cells were harvested, cellular extracts prepared, and CAT assays performed as previously described (49). To control for the effect of transcription factor overexpression on general cellular promoters a reporter construct driven by the beta-actin promoter, pH[…]-actin-luciferase (66), was used in cotransfection and CAT expression normalized for luciferase activity. Other plasmids used have been previously described (2, 49). […] Up to 30 μl of cellular extract (normalized for protein concentration) in a final volume of 130 μl was used for luciferase reactions.\nThe LTR reporter carried by HeLa-CD4-LTR cell line exists within the native chromatin structure of the genome. […]"}, "[1]": {"tested_on": "RCS oligonucleotide (−10 to +27 of HIV-1 LTR)", "type": "binding"}}, "note": "Read-outs that look alike come from different tables or passages of the source."}
{"molecule": "B1", "values": [{"measurement": "Binding of LSF in vitro by GST-fused construct", "setting": "LSF", "result": "binds LSF with equal avidity to intact GST-YY1"}]}
{"molecule": "B2", "values": [{"measurement": "Tat-activated CAT expression from integrated LTR reporter", "setting": "HIV-1 LTR; 200 ng pAR-Tat, 2.5 μg CMV expression plasmid, normalized to β-actin-luciferase", "result": "had no effect on expression of CAT"}, {"measurement": "Effect on YY1-mediated repression of integrated LTR-CAT expression", "setting": "HIV-1 LTR; with YY1 transfection, trichostatin-A added to culture medium (data not shown)", "result": "augmented repression mediated by YY1"}, {"measurement": "Complex formation with the RCS in EMSA", "setting": "[1]; 10 ng protein alone", "result": "formed a diffuse faintly visible EMSA band"}, {"measurement": "Complex formation with the RCS in EMSA", "setting": "[1]; 20 ng protein alone", "result": "induced a very prominent protein-DNA complex"}]}
